B1: Tubulin beta-4A chain (Homo sapiens), P04350 (parent)
chain: MREIVHLQAGQCGNQIGAKFWEVISDEHGIDPTGTYHGDSDLQLERINVYYNEATGGNYVPRAVLVDLEPGTMDSVRSGPFGQIFRPDNFVFGQSGAGNNWAKGHYTEGAELVDAVLDVVRKEAESCDCLQGFQLTHSLGGGTGSGMGTLLISKIREEFPDRIMNTFSVVPSPKVSDTVVEPYNATLSVHQLVENTDETYCIDNEALYDICFRTLKLTTPTYGDLNHLVSATMSGVTTCLRFPGQLNADLRKLAVNMVPFPRLHFFMPGFAPLTSRGSQQYRALTVPELTQQMFDAKNMMAACDPRHGRYLTVAAVFRGRMSMKEVDEQMLSVQSKNSSYFVEWIPNNVKTAVCDIPPRGLKMAATFIGNSTAIQELFKRISEQFTAMFRRKAFLHWYTGEGMDEMEFTEAESNMNDLVSEYQQYQDATAEEGEFEEEAEEEVA
B2: Tubulin beta chain (Homo sapiens), P07437 (parent)
chain: MREIVHIQAGQCGNQIGAKFWEVISDEHGIDPTGTYHGDSDLQLDRISVYYNEATGGKYVPRAILVDLEPGTMDSVRSGPFGQIFRPDNFVFGQSGAGNNWAKGHYTEGAELVDSVLDVVRKEAESCDCLQGFQLTHSLGGGTGSGMGTLLISKIREEYPDRIMNTFSVVPSPKVSDTVVEPYNATLSVHQLVENTDETYCIDNEALYDICFRTLKLTTPTYGDLNHLVSATMSGVTTCLRFPGQLNADLRKLAVNMVPFPRLHFFMPGFAPLTSRGSQQYRALTVPELTQQVFDAKNMMAACDPRHGRYLTVAAVFRGRMSMKEVDEQMLNVQNKNSSYFVEWIPNNVKTAVCDIPPRGLKMAVTFIGNSTAIQELFKRISEQFTAMFRRKAFLHWYTGEGMDEMEFTEAESNMNDLVSEYQQYQDATAEEEEDFGEEAEEEA
B3: Tubulin beta-6 chain (Homo sapiens), Q9BUF5 (parent)
chain: MREIVHIQAGQCGNQIGTKFWEVISDEHGIDPAGGYVGDSALQLERINVYYNESSSQKYVPRAALVDLEPGTMDSVRSGPFGQLFRPDNFIFGQTGAGNNWAKGHYTEGAELVDAVLDVVRKECEHCDCLQGFQLTHSLGGGTGSGMGTLLISKIREEFPDRIMNTFSVMPSPKVSDTVVEPYNATLSVHQLVENTDETYCIDNEALYDICFRTLKLTTPTYGDLNHLVSATMSGVTTSLRFPGQLNADLRKLAVNMVPFPRLHFFMPGFAPLTSRGSQQYRALTVPELTQQMFDARNMMAACDPRHGRYLTVATVFRGPMSMKEVDEQMLAIQSKNSSYFVEWIPNNVKVAVCDIPPRGLKMASTFIGNSTAIQELFKRISEQFSAMFRRKAFLHWFTGEGMDEMEFTEAESNMNDLVSEYQQYQDATANDGEEAFEDEEEEIDG

Variants of: B1
Details: with lrrk2_human LRRK2, Q5S007
Chain of lrrk2_human LRRK2, Q5S007 (Q5S007 whole entry): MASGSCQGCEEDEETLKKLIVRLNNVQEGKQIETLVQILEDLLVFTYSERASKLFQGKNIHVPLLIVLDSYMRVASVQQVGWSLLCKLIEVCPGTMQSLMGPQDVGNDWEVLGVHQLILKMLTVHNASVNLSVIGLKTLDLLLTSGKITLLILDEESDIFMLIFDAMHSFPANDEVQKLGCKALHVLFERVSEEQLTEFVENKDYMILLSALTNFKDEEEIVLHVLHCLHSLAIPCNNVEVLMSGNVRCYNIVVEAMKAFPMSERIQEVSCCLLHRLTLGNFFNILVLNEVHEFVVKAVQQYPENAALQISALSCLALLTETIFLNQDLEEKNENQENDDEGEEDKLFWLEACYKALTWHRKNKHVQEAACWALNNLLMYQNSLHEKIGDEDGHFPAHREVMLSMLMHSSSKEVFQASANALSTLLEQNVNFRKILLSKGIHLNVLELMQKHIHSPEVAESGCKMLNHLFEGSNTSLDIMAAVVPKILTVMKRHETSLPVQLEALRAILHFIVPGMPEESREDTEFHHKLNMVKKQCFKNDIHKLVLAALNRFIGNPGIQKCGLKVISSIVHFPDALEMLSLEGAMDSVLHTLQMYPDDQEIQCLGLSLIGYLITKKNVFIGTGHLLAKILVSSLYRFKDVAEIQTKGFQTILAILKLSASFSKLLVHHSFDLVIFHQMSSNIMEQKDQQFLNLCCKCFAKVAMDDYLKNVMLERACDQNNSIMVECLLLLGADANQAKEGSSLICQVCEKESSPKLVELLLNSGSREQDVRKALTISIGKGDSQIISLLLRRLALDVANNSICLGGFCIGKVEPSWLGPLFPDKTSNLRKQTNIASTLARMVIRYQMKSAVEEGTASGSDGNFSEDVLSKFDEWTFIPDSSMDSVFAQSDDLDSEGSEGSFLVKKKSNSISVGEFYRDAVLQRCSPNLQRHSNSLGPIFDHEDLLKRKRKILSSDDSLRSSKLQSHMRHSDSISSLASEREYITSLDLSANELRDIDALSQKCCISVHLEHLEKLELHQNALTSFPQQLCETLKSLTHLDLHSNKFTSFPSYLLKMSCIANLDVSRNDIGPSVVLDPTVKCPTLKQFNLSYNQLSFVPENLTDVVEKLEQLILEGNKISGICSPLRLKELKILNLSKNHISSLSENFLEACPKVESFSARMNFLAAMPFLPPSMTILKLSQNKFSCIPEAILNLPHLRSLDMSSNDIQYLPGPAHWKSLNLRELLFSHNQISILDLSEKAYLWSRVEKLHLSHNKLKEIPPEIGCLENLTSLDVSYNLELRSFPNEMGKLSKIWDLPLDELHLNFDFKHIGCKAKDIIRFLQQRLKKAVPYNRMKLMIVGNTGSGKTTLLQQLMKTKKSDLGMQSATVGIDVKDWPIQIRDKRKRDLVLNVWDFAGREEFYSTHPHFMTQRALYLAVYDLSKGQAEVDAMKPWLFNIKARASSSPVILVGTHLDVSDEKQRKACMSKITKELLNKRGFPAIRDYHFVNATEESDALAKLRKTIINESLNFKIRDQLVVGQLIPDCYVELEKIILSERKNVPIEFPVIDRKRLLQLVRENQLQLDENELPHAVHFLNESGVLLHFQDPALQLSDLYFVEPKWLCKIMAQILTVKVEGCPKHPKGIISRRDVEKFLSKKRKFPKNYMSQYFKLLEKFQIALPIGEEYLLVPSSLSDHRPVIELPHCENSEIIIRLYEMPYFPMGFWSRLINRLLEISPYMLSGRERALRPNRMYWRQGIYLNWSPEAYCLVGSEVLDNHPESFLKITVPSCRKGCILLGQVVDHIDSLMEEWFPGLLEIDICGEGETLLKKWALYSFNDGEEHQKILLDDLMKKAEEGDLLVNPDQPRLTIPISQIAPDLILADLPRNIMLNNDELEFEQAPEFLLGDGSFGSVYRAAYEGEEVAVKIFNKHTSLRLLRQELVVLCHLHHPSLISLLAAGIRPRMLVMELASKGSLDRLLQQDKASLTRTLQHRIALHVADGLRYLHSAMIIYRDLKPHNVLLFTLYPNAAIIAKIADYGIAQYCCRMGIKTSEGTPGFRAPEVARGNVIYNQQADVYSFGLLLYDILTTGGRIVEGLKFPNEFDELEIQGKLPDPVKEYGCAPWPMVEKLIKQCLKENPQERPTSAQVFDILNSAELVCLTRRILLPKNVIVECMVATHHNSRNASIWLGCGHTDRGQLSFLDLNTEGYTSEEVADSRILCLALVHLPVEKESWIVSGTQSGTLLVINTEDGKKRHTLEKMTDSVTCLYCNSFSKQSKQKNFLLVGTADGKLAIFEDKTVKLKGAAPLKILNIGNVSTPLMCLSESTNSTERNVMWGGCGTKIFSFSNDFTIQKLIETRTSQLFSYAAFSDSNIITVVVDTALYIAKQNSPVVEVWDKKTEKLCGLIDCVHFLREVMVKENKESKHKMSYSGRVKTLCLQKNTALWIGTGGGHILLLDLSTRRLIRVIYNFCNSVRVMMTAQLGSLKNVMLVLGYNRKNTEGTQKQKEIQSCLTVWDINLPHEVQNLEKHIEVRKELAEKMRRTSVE
For A364E, the “effect of a mutation on the interaction” value was “disrupting interaction”.
In the case of A364D, the “effect of a mutation on the interaction” value is reported as “disrupting interaction”.
With A364S the “effect of a mutation on the interaction” value was “disrupting interaction”.

Variants of: B2
Details: with lrrk2_human LRRK2, Q5S007
For A364D, the “effect of a mutation on the interaction” value was “disrupting interaction”.
For A364E, the “effect of a mutation on the interaction” value was “disrupting interaction”.
In the case of A364S, the “effect of a mutation on the interaction” value is reported as “disrupting interaction”.

Variants of: B3
Details: with lrrk2_human LRRK2, Q5S007
P320R;A364S was tested, and the “effect of a mutation on the interaction” value was “disrupting interaction”.
P320R;K362S was tested, and the “effect of a mutation on the interaction” value was “disrupting interaction”.

Source: IntAct's records for PubMed 24275654
